# Measured values from article doi:10.1101/2023.08.10.552813 (2023).
# Like-named read-outs stand apart in the source and are kept apart here.
# B1: HpARI_CCP1/2 (HpARI with CCP3 truncated) (domain or fragment)
# chain: AGQRCRFTDVERDKGYTGMLLKGRLRKTAGNGRTVELICGRGNHNYTCESGVLKESSPRQARCGCKGILEMLFDMPKEERPSPMYDSVTYDPTPNTPTTVGKDGIWNGVDYRNGSTVKPYCDTGPVINGSSKAVCVSGKWVPTLGVCPK
# modifications: biotinylated with EZ-Link Sulfo-NHS-Biotin where immobilised for SPR
# B2: mouse Interleukin 33 (residues 112-270) (ligand)
# chain: SIQGTSLLTQSPASLSTYNDQSVSFVLENGCYVINVDDSGKDQEQDQVLLRYYESPCPASQSGDGVDGKKVMVNMSPIKDTDIWLHANDKDYSVELQRGDVSPPEQAFFVLHKKSSDFVSFECKNLPGTYIGVKDNQLALVEEKDESCNNIMFKLSKI
# B3: Heligmosomoides polygyrus Alarmin Release Inhibitor (HpARI), full-length (natural protein)
# chain: AGQRCRFTDVERDKGYTGMLLKGRLRKTAGNGRTVELICGRGNHNYTCESGVLKESSPRQARCGCKGILEMLFDMPKEERPSPMYDSVTYDPTPNTPTTVGKDGIWNGVDYRNGSTVKPYCDTGPVINGSSKAVCVSGKWVPTLGVCPKMCSIGSLKENGKFVDVTATTKGDELNPPPREQTLIPIVRKVDKDKVQHGVKVVALCKAEDSTTAAEGVQEFECDNGKWKPEPVPCP
# modifications: biotinylated with EZ-Link Sulfo-NHS-Biotin where immobilised for SPR
# B4: HpARI-LD (full-length HpARI with residues 180-188 of the CCP3 loop deleted) (natural protein)
# chain: AGQRCRFTDVERDKGYTGMLLKGRLRKTAGNGRTVELICGRGNHNYTCESGVLKESSPRQARCGCKGILEMLFDMPKEERPSPMYDSVTYDPTPNTPTTVGKDGIWNGVDYRNGSTVKPYCDTGPVINGSSKAVCVSGKWVPTLGVCPKMCSIGSLKENGKFVDVTATTKGDELNPPPRKVDKDKVQHGVKVVALCKAEDSTTAAEGVQEFECDNGKWKPEPVPCP
# modifications: biotinylated with EZ-Link Sulfo-NHS-Biotin where immobilised for SPR
# What was measured:
# Experiment in all cases: SPR
# [1] = molecular target: B2
# [2] = molecular target: T1, HpARI point mutant of residue Y112 (Heligmosomoides polygyrus bakeri, biotinylated with EZ-Link Sulfo-NHS-Biotin where immobilised for SPR)
# [3] = molecular target: T2, HpARI point mutant of residue W107 (Heligmosomoides polygyrus bakeri, biotinylated with EZ-Link Sulfo-NHS-Biotin where immobilised for SPR)
# [4] = molecular target: T3, HpARI point mutant of residue E70 (Heligmosomoides polygyrus bakeri, biotinylated with EZ-Link Sulfo-NHS-Biotin where immobilised for SPR)
# [5] = molecular target: T4, HpARI-N152 (HpARI with an N-linked glycan inserted at residue 152, interface A) (Heligmosomoides polygyrus bakeri, N-linked glycan at residue 152)
# [6] = molecular target: T1, HpARI point mutant of residue Y112; remark: listed apart in the source
# [7] = molecular target: T2, HpARI point mutant of residue W107; remark: listed apart in the source
# [8] = molecular target: T3, HpARI point mutant of residue E70; remark: listed apart in the source
# [9] = molecular target: T4, HpARI-N152 (HpARI with an N-linked …); remark: listed apart in the source
# [10] = molecular target: B2
binder,measurement,setting,value
B1,koff,[1],0.00201 s⁻¹
B2,Kd,[2],0.528 nM
same,koff,[2],9.33e-05 s⁻¹
same,Kd,[3],1.18 nM
same,koff,[3],0.000162 s⁻¹
same,Kd,[4],0.31 nM
same,koff,[4],9.89e-05 s⁻¹
same,Kd,[5],0.0474 nM
same,Kd,[6],~0.5 nM
same,Kd,[7],~1.2 nM
same,Kd,[8],~0.3 nM
same,koff,[9],6.12e-05 s⁻¹
B3,koff,[1],4.51e-05 s⁻¹
B4,Kd,[10],4.53 nM
same,koff,[1],0.00296 s⁻¹
